Drawing on the NTF2 design screens of Basanta et al. (2020), this text covers protease stability score for 34 sequences.

This data set can be described thus: protease stability score; higher = more stable; yeast display proteolysis, trypsin and chymotrypsin.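 Also: relative to predicted unfolded state with 0 unfolded-like and 1 meaning tenfold more protease.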
“SEHDNLMKEKLTLMEHTLMTGDEEVWRELLDPEALTTVDGQHFHGREEVVKFLRKVRRRVDHITSIEIESIDPQGEKLHLDGRNRIKIDGREIELNVVIIMRKINGRWFLRSWNVV” displayed a protease stability score of 1.22.
Sequence “SEHHEEATEATKHFVHLMRTGDFDRLLELADPHVRVRINGKNLIGREDLDKLWKELGLTNVDVRIDDFSHQGDKVEIHTREHFNGRTVDVIVILEKINGQWVIKRREQR” showed a protease stability score of 0.4.
“SEDSEDAKKVVEISIHTVVTGDEHTNTRLFDPHVRIEIGDKEIHGREKFVHIIRHWRMEAHVEVDEVKRQGDKVRVDGHVRIILDINGRKIDIESQVDVNILKVNGRWLIESEHIH”: the protease stability score was 1.08.
On to “DEAHEWLKTLADLFFHWMLTGDFEHWIDYLDPDAKIEFEGRSNHGRENIYQLLLELKQEIRVRDYELKDVRIQGEKLLLNVHLHGHIGDKEIRTDTVLRLRVVDGRLKEVHIEIR”, for which the protease stability score was 1.52.
“SEEESKERHNEKFLKTVHKTGDEHSWRKMLDPDVRVEYGDKHDHGWEAIERFRKELGIERIHIDDRKIRHNEVVNGQVYLHEELVGTVNGVHVQVKMLIIFHKVDGKWHVELVQIN” displayed a protease stability score of 0.559.
“DEDDELSHRAVLLYMEAVLTGNEDFMSRLVDPDVRHIVGDKEYIGREQFVEWFNEFVEKVKNVTVRLRHHDIQGDKVVVHTEYRVNGRTWHEHVIILKINGKWRLKELRIHIE” returned a protease stability score of 0.723.
Sequence “KESEEDARKFWEKMVEDNRTGDWDSFEKLVDPHVKMLFNGREYHGRDELLDLFRHIRFKDHEIHDMKVIGNKVRMDTRVHLNVNGREISVDTHLVVEKINGRWVLHSVLFH” came in with a protease stability score of 1.62.
Sequence “DENKKAFEEAVSWFRHTSETGDEELFNDLVDPDTRTNYNGVSYHGWKEYEEYLRLIRELLGIKVVKHVHIHSVDVQGDFIHMDVELNLHYNGRERIERSHIRAFKVNGRWRMKSMIVV” displayed a protease stability score of 0.362.
“DERQHHAENFHELFFRWVETGDWENQRELADPNMRVDLVVNGVELHDHGMDSFTKRLHELRLHHLDIRSVHYVNGRIDSDIRVDGVIDGRRIDTHMRLHLRVINGKMREIRIQID”: the protease stability score is 1.33.
For “SEKEEVLREHARRVTEWWLTGDWEEFMKNMDPNARLQIGDKTSHGREEMYRVLKEIEHRLGVDHIEIKDEKVFNGRNHLDTRLHIGDKSINIRIHIDFVNGRLKFVRIEVD”, the protease stability score was found to be 1.18.
The sequence “DESTEVLERIMKDFLDELRTGDWEKFMELADPNVRLHFNGVTNHGREEVTRYFREHLARFDHYEIENHRVTLVGDKLHLDVILRVHQGDKFREYKVEIRVVVYDGKIKEVHIIIR” displayed a protease stability score of 2.44.
In turn, “SEEEREDEEMFRKLWEAYKTGDEKTLSELVDPNARLRFENREFVGRESIKEFYRRIREKFKGIRIEDVHLRDRKEQGEFIHIDIEINRFVGDKYENVKVEIVLLKFDGRWIIHEIRIK” gave a protease stability score of 2.69.
“DEDEEHARHMLEIFMHAVITGDEDTLKELVDPNVKLVVNGREFHGWEEYLKVHRHWRMRDAHIKHVEVQGEKVIVDTRLHGRVDGKLTDFRTEIIVRKINGRWHLESERVH” came in with a protease stability score of 2.13.
The sequence “DESEKHAEEFLRLLEESLLTGNWKFISELLDPRARTDYNGRDLHGRETMERWVKDFVRHIRIDHINNKTIDVQGDKVIIIGEVDGTINGRRERLEVHIFFLKVNGRWYLESTEFR” yielded a protease stability score of 1.27.
“EEIHKHLKELFVRWMKELVTGNEDSFKDLFDPHTRIHMHIGDKEIHAHGRKHLEDMILRFKGLRVEFRVEDSTAIGDKAHADFHLIIHVDGKNITTREEVRISVIDGKIREVHHHIN” displayed a protease stability score of 1.36.
Sequence “DTDTHTVKEFIRALVESSRTGDEDLLRDFADPRMRIDIDGRIFHGRENALRWLSELRIEEVRIDHVTIVDGRLHVDVTYRGDINGQHTETRVILIILKVNGRWRMHYIEVR” returned a protease stability score of 1.55.
In the case of “RDVEHLLEKWMEDHMEALHTGDEDRIHELLDPHVRVHIDGVNLHGRERAVEFMVRSLRELGIKHIKLDVEDVEVQGEKVIIDLRVNLDYDGREHRDKEIIILLKIDGKWVIEEVRRG”, the protease stability score amounted to 1.07.
Consider “SEDETELKRWVERFERSMHTGDEEDLRQMADPNTRFEVGDKEIHGWDLWSKIHRKEREKLGVDNVTTNIKRLEMYGDKLRLESELIFNGQRLEVILIAEKIDGKWVVTSFHIH”, for which the protease stability score was 0.129.
“SHVEEEAEHFWEELVRAYKTGDENLLKRLADPNVKVDINGRELIGREEFARVVSEERRQMRSHVELHDIRKDGDKMHINTILRIHIGDKEVSRTTHLHSIKVDGRWRLETWHIV” displayed a protease stability score of 1.06.
The value for “DEDEEMMEHLIRILVEVLKTGDWKELLKLADPHVRQDVNGVDIHGREDVSRRLANQAKELRLELHLQDVKVWNGRVDFDSRLHINQGEKYVQLHVRIITEKIDGRWRITEIHVR” was 1.62.
The sequence “SELEDMLRHMFDLFWRAFRTGDWELLMRLADPHVRLEVRFNGRHIEHVGRESFVESVETLRHEWRIDHLRINDEKYQGDYVNLNTRMDVFFDGVKVRTDTRVHSVVVNGRLREFSIEFG” had a protease stability score of 0.495.
Regarding “DEEEEDFRMAEHFIRKSLKTGDERLREELMDPHVRIHQGDKHFHGREDASELHRQFDHIEHVHLKDFHFYNGRVIMHMHVLGHWDGRRTRFDTHVTATKIDGRWIVKEWTII”, the protease stability score is 0.552.
As to “DEDSYNSHRALEDLWRDLETGDEENLNKLADPHARVKQGDKEFHGMHHWIHFLESLGITKVHVRIHRIQTQGDKVRIVGEIEFNGRRHHSIIFIEKINGVWLVHKMEIK”, the protease stability score is 1.41.
“SEEKKFSMEMLELLLHLLLTGDWDKLNKEFDPDYRLIIGDKETIGRESVRERLRLEIERIDHIHDVKIEDWKVQGDKAHIRLRVDGNIDGKRKEFESELIVIIVDGRMKSVRIIIK” showed a protease stability score of 1.97.
For “SEDEEAVRRILKKLLQSHETGDFRMFDRMLDPHVRLDVNGREHIGRESVHRVVEELRIEDMRLTDMHSQGNYLDIDGRLDGSVNGKKDTYRVRLVILKVDGRWIIEEMRIG”, the protease stability score stood at 1.95.
The sequence “DEDHHEAEEWADLITHFLKTGDEKFLRDLADPNTRFKYGDFHIHGREQLTNFLRHYVERVKGIRSELKDKHVDVQGEKVRVELDLVLRIGDKTIHITIIIINLKVDGKWYVHTLVVEHR” showed a protease stability score of 1.18.
In the case of “DDEEEVAERAARIVHHLYLTGNPEELLKYFDPDVRWIFNGKTSIGRENVVEMFDDVHRMFGIDVRTSDINSYDIVDGRIEVDSRLHLHINGRKINHHFRIESIKINGRWWLKRIDID” it was 0.933.
“HEEDEDAERAMRILVEWTKTGDEDKLRRNMDPNVKLWIDGQELHGRDSFKHLLTRFKNVKFEISDIRVLNHEEVVEIQLDTHLRIDGREHRVEIILIVIKVNGKWVMKLVEVRVR” registered a protease stability score of 2.12.
In turn, “DEDHEAMKHFQHLLERTHRTGDEERLLRLLDPNVRIIINGQHFHGREWWARHINHMRFHEYEFRVHHINVYGDKIEIDGTLRRRGEFDGREHEVNIRVHLTIEKFDGRWYMHILEFR” had a protease stability score of 0.795.
For the sequence “SEEEELVKKATDHWKNVIKTGDEHTIKKLVDPSARIIINGQEHHGRHMIHTLIHLWGVDKIEVHLRHLHMQGDKLEIINEVRVNGQSSTLTTISTKINGVWQFEEVQLE”, the protease stability score was found to be 0.902.
The value for “SEREKESERLWRLSAEVMETGDESMSLKEFDPHYRVLFDGQDFHGREQWKEFLERFDHEALKRFHEKRDDRQGDKAIHEGDLDLVLNYGDKQLRTRRDVIFYITKVNGKWMIKIVEFV” was 0.084.
In turn, “SEEEELWKMVDHLVHEWLRTGDEDTFSHYADPHARSIVNGKELHGREEFSNLVHKLKEQYPNLTLTIDELRSVGDKITLHITEEFNGVRYDVRIYALKVNGKWLHRYVEVR” registered a protease stability score of 1.54.
“DDENKFWKEFMDIWVRSLETGNEEELAKLIDPHARLHVNGVENHGREIVLKWFHHHLKHAGVDHRTFHDMRVFDGVNFIDGTLHVNGVTREIRLKVYVVNGVVESEEVRIH” displayed a protease stability score of 1.03.
Sequence “GEEHELTERAIEHFVDIWKTGDEDSLEENIDPHARIDFNGQQLHGREEMYRFMHKVNRQIKGIRLSFKYIDLRIYGDKVIVHNDGVVRVGDKVHDEQTKLEMRKVDGRWLFKSVTVFVL” displayed a protease stability score of 1.05.
